Here are results for one substance from patent publication US20250074971A1.

Test [1] addresses Senecavirus A (SVA) particles (Senecavirus A). Nature of the test: ELISA, coated SVA, Fc control.
Test [2] has as its target Foot-and-Mouth Disease Virus (FMDV) particles (Foot-and-Mouth Disease Virus). Nature of the test: ELISA, coated FMDV, Fc control.

Fc: the A450 is 0.218 A450 in test [1] and 0.054 A450 in test [2].
